Assays:
[1] = target: separase [also known as separin (ESPL1)], endogenous [human (endogenous in HCT116)]; assay: proximity ligation assay (PLA); details: HCT116 cells stably expressing GFP–Centrin2; antibodies against HA and separase; parent: 44; read off a plot
[2] = target: 14-3-3ε (endogenous) [human (endogenous in HCT116)]; assay: proximity ligation assay (PLA); details: HCT116 cells stably expressing GFP–Centrin2; antibodies to the Myc epitope tag and 14-3-3ε; parent: 52; read off a plot

Substance	response (puncta per cell) [1]	response (puncta per cell) [2]
HA-tagged 14-3-3ε WT mutant D127A [not stated] / separase [also known as separin (ESPL1)], endogenous [human (endogenous in HCT116)] chain 1 D127A	63	–
Myc-tagged separase (FL) mutant T1363A [human] / 14-3-3ε (endogenous) [human (endogenous in HCT116)] chain 1 T1363A	–	45
Myc-tagged separase (FL) mutant S1501A [human] / 14-3-3ε (endogenous) [human (endogenous in HCT116)] chain 1 S1501A	–	0.5

Further lines, results first:

response (puncta per cell) [1]	response (puncta per cell) [2]	Substance
8	–	HA-tagged 14-3-3ε WT mutant E134A [not stated] / separase [also known as separin (ESPL1)], endogenous [human (endogenous in HCT116)] chain 1 E134A
19	–	HA-tagged 14-3-3ε WT mutant D127A; E134A [not stated] / separase [also known as separin (ESPL1)], endogenous [human (endogenous in HCT116)] chain 1 D127A, chain 1 E134A

Source: article PMC12301659
